US20180334496A1 (KODIAK SCIENCES, published 2018)
Changes are numbered by the printed parent chain.

B1: KCD230 (antibody, V domains shown)
VH: QVQLQQPGTELVKPGASVKLPCKASGYTFTSYWMQWVKQRPGQGLEWIGEIDPSDTYINYNQKFKGKATLTVDTSSTTAYMQLSSLTSEDSAVYYCARYTTIMASDYWGQGTTLTVSS
VL: DIQMTQTTSSLSVSLGDRVTISCRASQDITNYLNWYQQKPDGTVKLLIYFTSRLHSGVPSRFSGSGSGTDYSLTISNLEPEDIATYYCQQYSKLPWTFGGGTKLEIK
B2: KCD212 (antibody, V domains shown)
VH: EVHLVESGGDLVKPGGSLKLSCAASGFTFSRYGMSWVRQTPDKRLEWVATISSAGSYTYYPDSVKGRFTISRDNAKNTLFLQMSSLKSEDTAMYYCARPLNYYGTSSFDYWGQGTTLTVSS
VL: QIVLTQSPAIMSASPGEKVTMTCRASSSVSSTYLHWYQQKPGSSPKLWIYSTSNLASGVPPRFSGSGSGTSYSLTISSVEAEDAATYYCQQYDSSPNTFGAGTKLELK
B3: KCD075 (antibody, V domains shown)
VH: QVQLLQPGAELVRPGTSVKLSCKASGYTFSNYWINWVKQRPGQGLEWIGNIYPSDSSINYNQKFKDKATLTVDKSSTTAYMQLSSPTSEDSAVYYCTGTDWYFDVWGAGTTVTVSS
VL: DIQMTQTTSSLSASLGDRVTISCSGGQGISNYLNWYQQKPDGTFKLLIYYTSTLHSGVPSRFSGSGSGTDYSLTISNLEPEDVATYYCQQYSKLPYTFGGGTKLEIK
B4: KCD022 (antibody, V domains shown)
VH: DVQLQESGPDLVKPSQSLSLTCTVTGYSITSGYSWHWIRQFPGNTLEWMGYIHYSGSTNYNPSLESRISFTRDTSKNQFFLQLNSVTTEDTATYYCALHFYGYNLGWYFDVWGAGTTVTVSS
VL: DIVMTQSHKFMSTSIGDRVIITCKASQDVGTTVAWYQQRPGQSPKLLIYWASTRHTAVPDRFTGSGSGTDFTLTISNVQSEDLADYFCQQYTSYPLTFGAGTQLELK
B5: KCD137 (antibody, V domains shown)
VH: EVQLVESGGDLVKPGGSLKLSCAASGFTFSGYGMSWVRQIPDKRLEWVAISSRDNSFTYYPDSVKGRFTISRDNAKNTLYLQMSSLKSEDTALYFCTRHPYLPTGGYVMDYWGQGTSVTVSS
VL: B4 VL with I15V, I20S, T32A, A57G, I75V, Q103K
B6: KCD017 (antibody, V domains shown)
VH: DVQLQESGPDLVKPSQSLSLTCTVTDYSITSGYSWHWIRQFPGNKLEWLGYIHSSGNTNYNPSLKSRFSITRDTSKNQFFLQLNSVTSEDTATYYCALHYYGSSFGWYFDVWGAGTTVTVSS
VL: B4 VL with I15V, I20Y, T32A, R39T, P40S, A57G, I75L, Q103K
B7: KCD225 (antibody, V domains shown)
VH: QVQLQQSGPELVKPGASVKISCKASGYTFTDYYINWMKQRPGQGLEWIGWIFPGSDSTYYNEKFKGKATLTVDKSSSTAYMLLSSLTSEDSAVYFCARLGYYSHSYYAMDYWGQGTSVTVSS
VL: DIQMTQSPASLSVSTGETVTITCRASENIYSNLAWFQQKQGKSPQLLVYAATNLADGVPSRFSGSGSGTQYSLKITSLQSEDFGSYYCQHFWGTPLTFGAGTKLDLK
B8: KCD132 (antibody, V domains shown)
VH: QVQLQQSGPELVKPGASVKISCKASGYSFTDYYINWVKQRPGQGLEWIGWIFPGSGSTYYNEKFKGKATLTVDKSSSTAYMLLSSLTSEDSAVYFCARTGYYSNLYAVDYWGQGTSVTVSS
VL: B7 VL with T15V, F36Y, A50V, T76N, S85N, L96Y, A100G, D105E, L106M, K107R
B9: KCD219 (antibody, V domains shown)
VH: B7 VH with M37V, D56G, T87P, L99Y, S103G, H104S, Y106F
VL: B7 VL with T15V, F36Y, T76N, T94S, L96P, A100G, D105E, L106I
B10: KCD013 (antibody, V domains shown)
VH: EVQLQQSGAELVKPGASVKLSCTASGFKIKDTYMHWVKERPDQGLEWIGRIDPANGNTKYDPKFQGKATITADTSSNTAYLQLSSLTSEDTAVYYCANAMDYWGQGTSVTVSS
VL: QIILTQSPAIMSASPGEKVTMTCSASSSVSNMYWYQQKPGSSPRLLIYDTSNLASGVPVRFSGSGSGASYSLTISRMEAEDAATYYCQQWSSYPWTFGGGTKLEIK
B11: KCD015 (antibody, V domains shown)
VH: EVQLQQSGAELVKPGASVKLSCTASGFNIKDTYMHWVKQRPEQGLEWIGRIDPANGYTEYDPKFQGKATITADTSSNTAYLQLSSLTSEDSAAYYCTSAMEFWGQGTSVTVSS
VL: B10 VL with I3V, M11L, N31Y, M32I, G40R, A68T, W95F, I105V
B12: KCD033 (antibody, V domains shown)
VH: EVQLQQSGPELVKPGASMKISCTASGYSFTGYTMTWVKQSHGKNLEWIGLINPYNGGTNYNQKFKGKATLTVDKSSSIAYMELLSLTSEDSAVYYCARRHYGSNWDYWGQGTTLTVSS
VL: DIKLTQSPSSIYTSLGERVTITCKASQDINTYLSWFQQRPGKSPKTLIYRADRLVDGVPSRVRGSGSGQDYSLTISSLEYEDMGIYYCLQYDEFPYTFGGGTKLEIK
B13: KCD036 (antibody, V domains shown)
VH: B12 VH with T23K, L70F, I78T, N104S
VL: B12 VL with I11M, T13A, R39K, D52N, V62F, R63S, D82E
notes: chimeric
B14: KCD001 (antibody, V domains shown)
VH: EVQLQQSGPELVKPGASVKISCKASDNSFTGYYMHWVKQSHGNILDWIGYIDPYNGVSSYNQKFKGKATLTVDKSSSTAYMEIRSLTSEDSAVYYCASYYGSSPYWYFDVWGTGTTVTVSS
VL: QIVLSQSPAILSASPGEKVTMTCRASSSVSYMHWYQQKPGSSPKPWIYATSNLASGVPARFSGSGSGTSHFLTISRLEAEDAATYFCQQWSSNPYTFGGGTKLEIK
B15: KCD110 (antibody, V domains shown)
VH: B14 VH with D26G, N27Y, Y54D, Y60K, K65T, L70V, V72A, I83L, S98G, P104W
VL: B14 VL with H70Y, F71S, L77V, F86Y
B16: KCD139 (antibody, V domains shown)
VH: EVQLQQSGAELVRPGSSVKMSCKTSGYTFTSYGINWVKQRPGQGLEWIGYIYIANGYTENNEKFKGKAKLTSDISSSTAYMQLSSLTSEDSAIYFCARRFDYAGALDYWGQGTSVTVSS
VL: DIVLTQSPASLAVSLGQRATISCRASESVDSYGNSFMHWYQQKPGQPPKLLIHRASNLESGIPARFSGSGSRTDFTLTINPVEADDVAIYYCQQTNDDPYTFGGGTNLEIK
B17: KCD128 (antibody, V domains shown)
VH: QVQLQQPGAELVRPESSVKLSCKASGYTFTSYWMDWVMQRPGQGLEWIGNIYPSGSETHYNQKFKDKATLTVDKSSTTAYMQLSSLTFEDSAVYYCARSGFIGSRYLYYFDYWGQGTTLTVSS
VL: DIVMTQSHKFMSTSVGDRVTITCKASQDVSNAVAWYQLKPGQSPKLLIYSASYRYTGVPDRFTGSGSGTDFTFTISSVQAADLAVYYCQQHYITPYTFGGGTKLEIK
B18: KCD062 (antibody, V domains shown)
VH: EVKLVESGGGLVQPGGSLKLSCAASGFTFSTYIMSWVRQTPEKRLEWVAYITSGGSSTYYPDTVKGRFTISRDNAKSTLYLQMSSLKSEDTAMYYCARHAHFYAMDYWGQGTSVTVSS
VL: DIQMTQSPSSLSASLGGKVTITCKASQDINKYIAWYQHKPGKGPRLLIHYTSTLQPGIPSRFSGSGSGRDYSFSISNLEPEDIATYYCLQYDNLLYTFGGGTKLEIK
B19: KCD064 (antibody, V domains shown)
VH: B18 VH with T31S, E46G, S56G, S77N, A100G, H101T, F102G
VL: B18 VL with K103E

The binders below were run against T1, human complement factor D purified from serum (human, UniProt P00746 26-253) (assay: SPR MX96).
T1 construct: serum-purified (CompTech); also called hCFD-Comptech; CFD
T1 sequence (P00746 26-253): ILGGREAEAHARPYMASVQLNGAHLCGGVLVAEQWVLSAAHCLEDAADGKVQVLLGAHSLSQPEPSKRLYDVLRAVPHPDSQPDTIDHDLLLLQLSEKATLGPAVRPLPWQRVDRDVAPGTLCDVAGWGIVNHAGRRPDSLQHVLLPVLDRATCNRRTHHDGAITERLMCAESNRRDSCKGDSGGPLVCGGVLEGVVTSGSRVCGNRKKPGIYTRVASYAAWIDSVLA

Row | Kd | Binder
1 | 2.5 nM | B1
2 | 0.47 nM | B2
3 | 3.7 nM | B3
4 | 57 nM | B4
5 | 0.5 nM | B5
6 | 7.8 nM | B6
7 | 8.7 nM | B7
8 | 2.6 nM | B8
9 | 4.3 nM | B9
10 | 7.3 nM | B10
11 | 6.2 nM | B11
12 | 11 nM | B12
13 | 26 nM | B13
14 | 0.22 nM | B14
15 | 3.7 nM | B15
16 | 5.3 nM | B16
17 | 14 nM | B17
18 | 24 nM | B18
19 | 20 nM | B19

The binders below were run against T2, recombinant cynomolgus CFD, His-tagged (cynomolgus) (assay: SPR MX96).
T2 construct: also called rcyCFD-His; recombinant Cyno-CFD

Row | Kd | Binder
20 | 2.7 nM | B1
21 | 3.8 nM | B2
22 | 3.2 nM | B3
23 | 54 nM | B4
24 | 5.9 nM | B5
25 | 11 nM | B6
26 | 46 nM | B7
27 | 8 nM | B8
28 | 12 nM | B9
29 | 93 nM | B10
30 | 250 nM | B11
31 | 93 nM | B12
32 | 64 nM | B13
33 | 0.63 nM | B14
34 | 5.3 nM | B15
35 | 3.8 nM | B16
36 | 3.3 nM | B17
37 | 19 nM | B18
38 | 15 nM | B19

Each binder was assayed against T3, recombinant human CFD mutant 1 (R157A, R207A), His-tagged (human, UniProt P00746 26-253) (assay: SPR MX96).
T3 construct: positions are linear positions in the mature protein; also called rhCFD-mut1-His; Mut1
T3 sequence (P00746 26-253 R182A/R232A limits assumed): as the sequence (P00746 26-253) above, with R157A, R207A counted along it

Row | Kd | Binder
39 | 0.88 nM | B1
40 | 0.2 nM | B2
41 | 3.4 nM | B3
42 | 110 nM | B4
43 | 4.6 nM | B5
44 | 10 nM | B6
45 | 6.2 nM | B7
46 | 1.4 nM | B8
47 | 3.6 nM | B9
48 | 19 nM | B10
49 | 3.7 nM | B11
50 | 28 nM | B12
51 | 80 nM | B13
52 | 0.19 nM | B14
53 | 4.1 nM | B15
54 | 3.5 nM | B16
55 | 13 nM | B17
56 | 62 nM | B18
57 | 37 nM | B19

The binders below were run against T4, recombinant human CFD, His-tagged (human, UniProt P00746 26-253) (assay: SPR MX96).
T4 construct: also called rhCFD-His
T4 sequence (P00746 26-253 limits assumed): as the sequence (P00746 26-253) above

Row | Kd | Binder
58 | 1.6 nM | B1
59 | 0.21 nM | B2
60 | 2.5 nM | B3
61 | 83 nM | B4
62 | 5.5 nM | B5
63 | 13 nM | B6
64 | 5 nM | B7
65 | 1.6 nM | B8
66 | 3 nM | B9
67 | 11 nM | B10
68 | 4.5 nM | B11
69 | 19 nM | B12
70 | 29 nM | B13
71 | 0.22 nM | B14
72 | 2 nM | B15
73 | 3.3 nM | B16
74 | 14 nM | B17
75 | 32 nM | B18
76 | 20 nM | B19
